Among the data in patent CN112778416A (KANGYUAN MEDICAL TECH DALIAN CO LTD, dated 2021) are Kd and koff values, retold here.

In assay [1] the target is T1, 白介素-6 (IL-6) (UniProt P05231 30-212).
T1 construct: also called Interleukin-6; 抗原IL-6
Description: SPR, IL-6 amine-coupled to CM5 chip, polypeptide injected. A general note: In SPR one partner is held on a chip, and binding of the other changes the refractive index at the surface.

For assay [2], the target named is T1, 白介素-6 (IL-6). Kind of assay: SPR, IL-6 amine-coupled to CM5 chip, nanobody injected.

B1: 人源化二价多肽hbvCNb20-1 (VHH)
chain: EVQLVESGGGSVQAGGSLRLSCAASSGILEIFNAMSWFRQAPGKEREWVSAIMGSPYGSTEYYADSVKGRFTFSQDNAKNTVYLQMDSLRPEDTATYYCHSAGYDPRGDDYWGQGTLVTVSSGGGGSGGGGSGGGGSEVQLVESGGGSVQAGGSLRLSCAASSGILEIFNAMSWFRQAPGKEREWVSAIMGSPYGSTEYYADSVKGRFTFSQDNAKNTVYLQMDSLRPEDTATYYCHSAGYDPRGDDYWGQGTLVTVSS
B1: in assay [1], binding was put at a Kd of 0.0807 nM and the koff (commonly a measure of how fast the partners let go of each other) was determined as 0.000184 s⁻¹.

B2: 纳米抗体CNb20-1 (VHH)
VHH: QVQLQESGGGSVQAGGSLRLSCAASSGILEIFNAMAWFRQAPGKEREWVARIMGSPYGSTEYYADSVKGRFTFSQDNAKNTVYLQMDSLEPEDTATYYCHSAGYDPRGDDYWGQGTQVTVSS
As to B2, the dissociation constant Kd (in general, the concentration at which binding is half-saturated) in assay [2] worked out at 0.0111 nM.

B3: 人源化纳米抗体hCNb20-1 (VHH)
VHH: EVQLVESGGGSVQAGGSLRLSCAASSGILEIFNAMSWFRQAPGKEREWVSAIMGSPYGSTEYYADSVKGRFTFSQDNAKNTVYLQMDSLRPEDTATYYCHSAGYDPRGDDYWGQGTLVTVSS
notes: Humanised variant of CNb20-1, purified on Ni Sepharose
B3 displayed an equilibrium dissociation constant (Kd) in assay [2] of 0.0995 nM.

B4: 纳米抗体CNb20-2 (VHH)
VHH: QVQLVESAGGLVQPGGSLRLSCAASGRFTGGSPMGWYRQAPGKRRELVADIMGRGGSNTYADSVKGRFTISRDNAKNTVYLQMNSLKPEDTAVYYCAEAERVSGLLLEVVAEPRGDDYWGQGTQVTVSS
As to B4, in assay [2], the Kd is 0.0423 nM.
